Assay results: patent publication US11015206B2, “Compositions and methods comprising sequences having hydroxyphenylpyruvate dioxygenase (HPPD) activity” (PIONEER HI-BRED INTERNATIONAL, INC., priority 2014, dated 2021)

Tests used:
Assay type in all cases: biochemical, Z. mays
[1] = tested on: 4-hydroxyphenylpyruvate dioxygenase (HPPD); assay: ON rate ratio: HPPD reaction rate with vs without inhibitor in the 70 to 90 second interval; settings: Table 7; tembotrione; combinatorial variants
Source text: (§1) Higher KD (reduced affinity or increased insensitivity) can be attained with a numerically smaller ON rate, a larger OFF rate or both. To detect and quantify changes in kON and kOFF, observations of the time course of an HPPD reaction as inhibitor binds to and inactivates the enzyme (kON), or is released from a pre-formed enzyme-inhibitor complex (kOFF) were used, as shown in FIGS. 13A and 13B. In practice, a quantitative indicator of kON was obtained by monitoring the time courses of HPPD reactions containing 60 or 120 nM HPPD and 100 μM HPP in the presence and absence of 4 μM inhibitor (e.g., mesotrione or tembotrione). The ratio of the reaction rate with inhibitor to that without inhibitor during the 70 to 90 second interval of the reaction was termed the “ON rate ratio”. The smaller the actual kON, the more slowly the HPPD reaction decelerates and the higher the value is for the ON rate ratio. FIGS. 13A and 13B illustrate the contrasting reaction velocity in the 70-90 sec interval for maize wild-type HPPD (FIG. 13A) versus an improved variant (SEQ ID NO:78) (FIG. 13B).

[2] = tested on: 4-hydroxyphenylpyruvate dioxygenase (HPPD); assay: OFF rate ratio: release of inhibitor from pre-formed enzyme-inhibitor complex; settings: Table 7; tembotrione; combinatorial variants
Protocol: A quantitative indicator of kOFF can be obtained by observing the time course of an HPPD reaction as inhibitor is released from a pre-formed enzyme-inhibitor complex. HPPD and inhibitor were incubated together at concentrations of 7.2 and 8 μM, respectively. Incubations with the same concentrations of enzyme but no inhibitor were done in parallel. After 1 hr at room temperature, 5 to 10 μl of the enzyme-inhibitor complex was dispensed into the wells of the assay plate. Reactions were started with the addition of 290 to 295 μl of 25 mM Hepes, pH 7, 2 mM ascorbate, 10 μM FeSO4, 100 μM HPP and 50 nM HGD. The reactions were monitored at 320 nm for 12 min. Reaction velocity accelerates as inhibitor is released from the enzyme until a steady state is reached, during which the reaction velocity is constant. The ratio of the steady state rate in mixtures containing herbicidal inhibitor to the initial velocity of mixtures lacking inhibitor is termed the “OFF rate ratio”.
Another parameter to record is the time span required for the reactions with inhibitor to reach the steady state. FIGS. 13C and 13D illustrate the contrasting time span in which maize wild-type HPPD (FIG. 13C) and an improved variant (SEQ ID NO:78) (FIG. 13D) dissociated from mesotrione, as indicated by the accelerating reaction rates. The plateau of absorbance is due to exhaustion of the substrate. With the improved variant, not only was the steady state attained in a shorter time span (80 sec for the variant versus 280 sec for wild type), the velocity attained was twice as high as with wild type, though the enzymes were present at the same concentration (240 nM). This is because a larger fraction of the variant enzyme is free of inhibitor compared to the wild-type enzyme, and the kcat for both is nearly the same, about 220 min^−1.

[3] = tested on: 4-hydroxyphenylpyruvate dioxygenase (HPPD); assay: Insensitivity parameter (ON × OFF) and trait fitness (ON × OFF × kcat/KM or × kcat); design: key to ON × OFF / Insensitivity, mesotrione, ON × OFF / Insensitivity, tembotrione, ON × OFF / Insensitivity, topramezone, ON × OFF / Insensitivity, sulcotrione, ON × OFF / Insensitivity, isoxaflutole (DKN), ON × OFF: insensitivity = ON rate ratio × OFF rate ratio (surrogate for KD)
Source text: Because substrate and inhibitors bind in the same site, the high concentration of substrate present may competitively trap the inhibitor and prevent it from binding again. To be sure that improvement in ON rates is being taken into account, the ON and OFF rate ratios were multiplied, creating an “insensitivity parameter” that is a surrogate for KD. KD is expressed as kOFF/kON, but because the ON rate ratio is an inverse parameter (the higher the value of ON rate ratio, the lower the value of the represented phenomenon, kON), it is appropriate to multiply ON and OFF rate ratios rather then divide OFF rate ratio by ON rate ratio. Another parameter, which quantifies the combined catalytic and insensitivity properties of the enzyme is kcat/KM×ON rate ratio×OFF rate ratio, and is termed “trait fitness”. This parameter is intended to have a meaning similar to the commonly used expression kcat/KM×Ki.

[4] = tested on: 4-hydroxyphenylpyruvate dioxygenase (HPPD); assay: Estimate of kcat from initial rate at saturating hydroxyphenylpyruvate without inhibitor (ON rate ratio assay)
Source text: as §1
Thirty nine variants were desensitized to tembotrione compared with the backbone enzyme, Round 7, variant 9070 (SEQ ID NO:2) and all were desensitized compared with maize wild type HPPD (SEQ ID NO:1). Because the assay for ON rate ratio includes an initial rate measurement at saturating hydroxyphenylpyruvate without inhibitor and with known enzyme concentration, an estimate of kcat was available. Taking into account kcat and insensitivity parameters, 30 variants were selected for measurement of substrate saturation kinetic parameters and re-evaluation of insensitivity to tembotrione. The kinetic and insensitivity parameters were determined as described in Example 1, and were multiplied to generate the “trait fitness” parameter. The complete list of variants, i.e., of selected single substitutions in SEQ ID NO:2, analyzed with multiple inhibitors and the results obtained are shown in Table 6. The same set of 30 variants were evaluated for insensitivity to mesotrione, sulcotrione, isoxaflutole (its active diketonitrile form, abbreviated DKN in Table 6) and topramezone.

[5] = Table 7, tembotrione, combinatorial variants
[6] = Table 7, combinatorial variants

| ON rate ratio [1] | OFF rate ratio [2] | ON × OFF ([3]; Megatable 3, shuffled variants) | ON × OFF [3, 5] | Molecule | ON × OFF × kcat ([3]; Megatable 3, shuffled variants) | ON × OFF × kcat [3, 5] | kcat ([4]; Megatable 3, shuffled variants) | kcat [4, 6] |
| --- | --- | --- | --- | --- | --- | --- | --- | --- |
| 0.742 | 0.351 | 0.261 | 0.261 | P056028-C-06 (protein, Zea mays variant form created by artificial means.) MGPTPTATAAGAAVAAASAAEQAAFRLVGHRNFVRFNPRSDRFQTLAFHHVELWCADAASAAGRFSFALGVPLAARSDLSTGNSAHASLLLRSGSLSLLFTAPYAHGADAATAALPSFSAAAARRFAADHGLAVRAVALRVADAEDAFRASVAAGARPAFGPVDLGRGFRLAEVELYGDVVLRYVSYPDGGAGEPFLPGFEGVASSGAADYGLNRFDHIVGNVPELAPAAAYMAGFTGFHEFAEFTTEDVGTTESGLNSMALANNSENVLLPLNEPVHGTKRRSQIQTFLDHHGGPGVQHIALASDDVLRTLREMRARSAMGGFEFLPPPLSDYYDGVRKCAGDVLTEAQINECQRLGVMVDRDDEGVLLQIFTKPVGDRPTFFVEIIQRIGCMEKDEKGQEYQKGGCGGFGKGNFGQLFKSIEDYEKSLEAKQAAAAATAQGS | 2.77 | 2.77 | 0.177 s⁻¹ | 0.177 s⁻¹ |
| 0.712 | 0.381 | 0.271 | 0.271 | P056028-C-08 (protein, Zea mays variant form created by artificial means.) MGPTPTATAAGAAVAAASAAEQAAFRLVGHRNFVRFNPRSDRFQTLAFHHVELWCADAASAAGRFSFALGVPLAARSDLSTGNSAHASLLLRSGSLSLLFTAPYAHGADAATAALPSFSAAAARRFAADHGLAVRAVALRVADAEDAFRASVAAGARPAFGPVDLGRGFRLAEVELYGDVVMRYVSYPDGAAGEPFLPGFEGVASPGAADYGLSRFDHIVGNVPELAPAAAYMAGFTGFHEFAEFTTEDVGTTESGLNSMALANNSENVLLPLNEPVHGTKRRSQIQTFLDHHGGPGVQHIALASDDVLRTLREMRARSAMGGFEFLPPPLSDYYDGVRKCAGDVLTEAQINECQELGVMVDRDDEGVLLQIFTKPVGDRPTFFLEIIQRIGCMEKDEKGQEYQKGGCGGFGKGNFGQLFKSIEDYEKSLDAKQAAAAATAQGS | 3.65 | 3.65 | 0.225 s⁻¹ | 0.225 s⁻¹ |
| 0.706 | 0.314 | 0.222 | 0.222 | P056028-C-09 (protein, Zea mays variant form created by artificial means.) MGPTPTATAAGAAVAAASAAEQAAFRLVGHRNFVRFNPRSDRFQTLAFHHVELWCADAASAAGRFSFALGVPLAARSDLSTGNSAHASLLLRSGSLSLLFTAPYAHGADAATAALPSFSAAAARRFAADHGLAVRAVALRVADAEDAFRASVAAGARPAFGPVDLGRGFRLAEVELYGDVVLRYVSYPDGAAGEPFLPGFEGVASPGAADYGLNRFDHIVGNVPELAPAAAYMAGFTGFHEFAEFTTEDVGTTESGLNSMALANNSENVLLPLNEPVHGTKRRSQIQTFLDHHGGPGVQHIALASDDVLRTLREMRARSAMGGFEFLPPPLSDYYDGVRRCAGDVLTEAQINECQELGVMVDRDDEGVLLQIFTKPVGDRPTFFLEIIQRIGCMEKDEKGQEYQKGGCGGFGKGNFGQLFKSIEDYEKSLEAKQAAAAATAQGS | 3.76 | 3.76 | 0.283 s⁻¹ | 0.283 s⁻¹ |
